This is an account of results in publication PMC8935074, “Phosphorylated and Phosphomimicking Variants May Differ—A Case Study of 14-3-3 Protein” (Frontiers in Chemistry, 2022).

Numbering of substitutions follows the chain as printed. Names and notes keep the numbering of the source.

Data set [1] concerns the target 14-3-3ζ (UniProt P63104). The data set is described as follows: AUC sedimentation velocity, 36.5 μM. To be noted: sites S58.
For data set [2], the target named is 14-3-3ζ (UniProt P63104). The data set is described as follows: SEC-RALS, 36.5 μM. Particulars: sites S58.
Data set [3] addresses 14-3-3ζ phosphorylated at Ser58 (UniProt P63104). Kind of data set: SEC-RALS; 5 mg/mL (183 μM) pζ and ζm in PBS pH 7.4, 20°C, triplicates; KD of dimerisation estimated from the protein percentage in the dimeric and monomeric peaks; dimer to monomers.
Another data set deals with 14-3-3ζ L12E_M78K (UniProt P63104). Described as above.
In data set [4] the target is 14-3-3ζ WT (UniProt P63104). The data set is described as follows: SEC-RALS; size-exclusion chromatography with right-angle light scattering, 1 mg/mL (36.5 μM) protein in PBS pH 7.4, Zenix SEC 300 column, 20°C; dimer to monomers.
Data set [5] has as its target 14-3-3ζ WT (UniProt P63104). The data set is described as follows: AUC; sedimentation velocity, 1 mg/mL (36.5 μM) protein in 50 mM Tris-HCl, 300 mM NaCl, 3 mM NaN3, pH 8, 20°C, 50,000 RPM, c(s) distribution; dimer to monomers.
Data set [6] concerns the molecule itself. Kind of data set: SEC-RALS; 4.5 mg/mL (164 μM) ζ_S58D and ζ_S57D_S58D in PBS pH 7.4, 20°C, triplicates; KD of dimerisation calculated from the observed MW as weighted average of dimer and monomer; dimer to monomers.
Data set [7] deals with the molecule itself. Kind of data set: AUC; sedimentation velocity, 1 mg/mL (36.5 μM) protein in 50 mM Tris-HCl, 300 mM NaCl, 3 mM NaN3, pH 8, 20°C, 50,000 RPM, c(s) distribution; dimer to monomers.
The data set “FRET; 15°C” concerns the molecule itself. Kind of data set: FRET; 15°C.
Data set [8] deals with the molecule itself. The data set is described as follows: FRET or BRET; kinetic FRET assay in a cuvette: 200 nM AF647-labelled plus 200 nM AF488-labelled ζ_S58E_Ntail, then 100-fold excess of non-labelled ζ_S58E; 20 mM sodium phosphate pH 6.8, 15°C; profile fitted for KD and koff; dimer to monomers.
Where [9] appears, read: reference: non-phosphorylated ζ.

For the molecule 14-3-3ζ (from UniProt P63104) ζ_S58D, the “other: apparent MW” value was “weaker; reference 56.4” in the data set with 14-3-3ζ [1] (reference: ζ wild type) and “weaker; reference 54.5” with 14-3-3ζ [2] (reference: ζ wild type).

With 14-3-3ζ (from UniProt P63104) ζ_S58E, the figures for the “other: apparent MW” value in the data set with 14-3-3ζ [1] (reference: ζ wild type) and with 14-3-3ζ [2] (reference: ζ wild type) were “same; reference 56.4” and “weaker; reference 54.5”, respectively.

On to “14-3-3ζ phosphorylated at Ser58 (from UniProt P63104 1-245) (natural protein)”, for which the Kd in data set [3] is 7600 µM.

As for “14-3-3ζ L12E_M78K (from UniProt P63104 1-245) (natural protein)”, the Kd with 14-3-3ζ L12E_M78K was 4600 µM.

As for “14-3-3ζ (from UniProt P63104) pζ (PKA co-expressed, purified pS58 form)”, the results for the “other: apparent MW” value in the data set with 14-3-3ζ [1] (setting [9]) and with 14-3-3ζ [2] (setting [9]) were “weaker; reference 56.4” and “weaker; reference 54.5”, respectively.

Turning to “14-3-3ζ WT (from UniProt P63104 1-245) (natural protein)”, the stoichiometry N with 14-3-3ζ WT [4] and in the data set with 14-3-3ζ WT [5] was 2 in each case.

As to “14-3-3ζ (from UniProt P63104) ζ_S57D_S58D”, the “other: apparent MW” value with 14-3-3ζ [1] (reference: ζ wild type) is given as “weaker; reference 56.4”; with 14-3-3ζ [2] (reference: ζ wild type), “weaker; reference 54.5”.

B1: 14-3-3ζ S58D (natural protein, UniProt P63104 1-245, looked up)
chain: MDKNELVQKAKLAEQAERYDDMAAAMKSVTEQGAELSNEERNLLSVAYKNVVGARRSDWRVVSSIEQKTEGAEKKQQMAREYREKIETELRDICNDVLSLLEKFLIPNASQAESKVFYLKMKGDYYRYLAEVAAGDDKKGIVDQSQQAYQEAFEISKKEMQPTHPIRLGLALNFSVFYYEILNSPEKAASLAKTAFDEAIAELDTLSEESYKDSTLIMQLLRDNLTLWTSDTQGDEAEAGEGGEN
notes: 14-3-3ζ protein with C25A C189A and the phosphomimicking mutation S58D; source: E. coli BL21(DE3) CodonPlus RIL, purified (protocol of Hritz et al., 2014)
B1: in [6], the Kd is 132 ± 7 µM.

B2: 14-3-3ζ S57D_S58D (natural protein, UniProt P63104 1-245, looked up)
chain: B1 chain with S57D
notes: also called double phosphomimicking mutant; source: E. coli BL21(DE3) CodonPlus RIL, purified (protocol of Hritz et al., 2014)
As to B2, the Kd in data set [6] is 348 ± 19 µM.

B3: 14-3-3ζ S58E (natural protein, UniProt P63104 1-245, looked up)
chain: B1 chain with D58E
notes: 14-3-3ζ protein with C25A C189A and the phosphomimicking mutation S58E; source: E. coli BL21(DE3) CodonPlus RIL, purified (protocol of Hritz et al., 2014)
B3: the “stoichiometry N” value in [7] came out at 2.

B4: ζ_S58E_Ntail, fluorescently labelled (natural protein)
chain: SVDACKGSSGGMDKNELVQKAKLAEQAERYDDMAAAMKSVTEQGAELSNEERNLLSVAYKNVVGARRSEWRVVSSIEQKTEGAEKKQQMAREYREKIETELRDICNDVLSLLEKFLIPNASQAESKVFYLKMKGDYYRYLAEVAAGDDKKGIVDQSQQAYQEAFEISKKEMQPTHPIRLGLALNFSVFYYEILNSPEKAASLAKTAFDEAIAELDTLSEESYKDSTLIMQLLRDNLTLWTSDTQGDEAEAGEGGEN
modifications: Cys5 (of the added N-terminal tail) labelled with AlexaFluor647-C5-maleimide (AF647) in one preparation and AlexaFluor488-C2-maleimide (AF488) in the other
Molecule B4 registered a koff in the data set “FRET; 15°C” of 0.731 s⁻¹. Besides, the Kd in data set [8] is 0.35 ± 0.25 µM.
